# Source: PMC5444840
# Like-named read-outs stand apart in the source and are kept apart here.
# B1: CXCL13 (ligand)
# chain: VLEVYYTSLRCRCVQESSVFIPRRFIDRIQILPRGNGCPRKEIIVWKKNKSIVCVDPQAEWIQRMMEVLRKRSSSTLPVPVFKRKIP
# Experiments:
# Assay in all cases: SPR; multi-cycle kinetics, Biacore X-100: rSgC or IgD amine-coupled on a CM4 chip; different chemokine concentrations at 30 ul/min, 180 s contact, 600 s dissociation, HBS-EP pH 7.4; global fit to a 1:1 Langmuir model
# [1] = biological target: VZV gC IgD (amino acids P140 to V531, with the predicted immunoglobulin-like domains) (Varicella zoster virus, Dumas strain)
# Chain of VZV gC IgD (amino acids P140 to V531, with the predicted immunoglobulin-like domains) (Varicella zoster virus, Dumas strain) (P09256 171-562 limits assumed): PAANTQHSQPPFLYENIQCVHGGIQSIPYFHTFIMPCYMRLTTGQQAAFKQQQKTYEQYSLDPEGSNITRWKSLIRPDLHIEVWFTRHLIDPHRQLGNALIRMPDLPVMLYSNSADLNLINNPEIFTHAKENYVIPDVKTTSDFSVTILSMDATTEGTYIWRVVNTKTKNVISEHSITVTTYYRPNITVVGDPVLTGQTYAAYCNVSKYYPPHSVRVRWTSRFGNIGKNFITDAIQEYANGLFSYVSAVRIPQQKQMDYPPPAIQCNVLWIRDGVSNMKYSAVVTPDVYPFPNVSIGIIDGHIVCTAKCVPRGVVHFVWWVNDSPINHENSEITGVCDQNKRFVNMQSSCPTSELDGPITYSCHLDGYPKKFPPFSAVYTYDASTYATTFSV
# [2] = biological target: recombinant soluble VZV glycoprotein C ectodomain (VZV rSgC) (Varicella zoster virus, Dumas strain)
# Chain of recombinant soluble VZV glycoprotein C ectodomain (VZV rSgC) (Varicella zoster virus, Dumas strain) (P09256 54-562 limits assumed): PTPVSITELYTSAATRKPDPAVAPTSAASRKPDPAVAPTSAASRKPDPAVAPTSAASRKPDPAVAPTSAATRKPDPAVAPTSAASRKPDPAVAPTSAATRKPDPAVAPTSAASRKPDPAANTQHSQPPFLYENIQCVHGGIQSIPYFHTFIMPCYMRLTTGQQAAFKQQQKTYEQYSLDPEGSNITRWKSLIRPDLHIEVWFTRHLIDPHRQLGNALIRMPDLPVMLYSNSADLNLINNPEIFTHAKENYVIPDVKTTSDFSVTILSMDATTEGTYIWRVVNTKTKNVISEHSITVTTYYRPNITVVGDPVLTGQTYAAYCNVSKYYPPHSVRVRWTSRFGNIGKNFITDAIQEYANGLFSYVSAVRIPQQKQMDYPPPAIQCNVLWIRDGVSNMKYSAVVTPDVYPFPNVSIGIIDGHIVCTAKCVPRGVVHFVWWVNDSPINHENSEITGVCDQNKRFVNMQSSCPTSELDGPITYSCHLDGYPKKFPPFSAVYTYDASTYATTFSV
# [3] = biological target: VZV gC IgD (amino acids P140 to V531, with the predicted immunoglobulin-like domains) (Varicella zoster virus, Dumas strain); remark: listed apart in the source
# [4] = biological target: recombinant soluble VZV glycoprotein C ectodomain (VZV rSgC) (Varicella zoster virus, Dumas strain); remark: listed apart in the source
Molecule,Kd [1] [nM],koff [1] [s⁻¹],kon [1] [M⁻¹ s⁻¹],t(1/2) [1] [min],Kd [2] [nM],koff [2] [s⁻¹],kon [2] [M⁻¹ s⁻¹],t(1/2) [2] [min],Kd [3] [nM],koff [3] [s⁻¹],kon [3] [M⁻¹ s⁻¹],t(1/2) [3] [min],Kd [4] [nM],koff [4] [s⁻¹],kon [4] [M⁻¹ s⁻¹],t(1/2) [4] [min]
CCL2 (from UniProt P13500 24-99) (ligand),6.05,0.0013,214000,8.91,5.84,0.00101,173000,11.4,,,,,,,,
CCL13 (from UniProt Q99616 17-98) (ligand),0.299,0.00389,1.3e+07,2.97,0.176,0.00184,1.04e+07,6.29,,,,,,,,
CCL19 (from UniProt Q99731 22-98) (ligand),0.118,0.00161,1.37e+07,7.18,0.138,0.00212,1.54e+07,5.46,,,,,,,,
B1,,,,,,,,,0.567,0.0015,2.64e+06,7.72,0.422,0.00251,5.94e+06,4.61
